According to US20240317834A1, “COMPOSITIONS AND METHODS FOR NEUROLOGICAL DISEASES” (CODA BIOTHERAPEUTICS, INC., priority 2020, published 2024):

Test system: Lenti-X 293T cells
Test: YFP fluorescence quenching anion reporter plate reader assay of engineered receptors stimulated with acetylcholine or a non-native ligand
Format: cell-based
Description: To screen these mutant LGICs for those having novel response profiles to ligands, an anion reporter assay was developed to assess the function of the LGICs in a high throughput format. In this assay, cells expressing a YFP reporter whose fluorescence is quenched in the presence of anion are transfected with DNA encoding the channel of interest. Upon exposure to ligand, channels that are activated will flux anion, resulting in a dose-dependent quench of the YFP that can be detected on a plate reader. The greater the quench signal (i.e., the more positive the value), the higher the ligand activity on the receptor is.
Lenti-X 293T cells (LX293T, Clontech) were maintained in DMEM containing 10% FBS and 1% penicillin/streptomycin (Invitrogen). […] Two days before assay, cells were split at a density of 20,000 cells/well in a 96-well tissue culture plate coated with poly-d lysine (Thermo Scientific). The next day, the cells were transiently transfected with 0.1 μg of DNA per well using standard Fugene protocol (Promega). On the day of assay, cells were washed 2 times in 1× extracellular solution (1×ECS: 140 mM NaCl, 5 mM KCl, 1 mM MgCl2, 2 mM CaCl2), 10 mM HEPES, 10 mM glucose, pH 7.2, mOsms 300). After the last wash, 100 μL of 1×ECS was added to the wells and the plate was incubated at 37° C. for 30 min. While incubating the plate, the drugs were diluted to a 2× concentration in 1×ECS-NaI (same components as 1×ECS except the 140 mM NaCl was replaced by 140 mM NaI). The plates were then read on a Flexstation3 (Molecular Devices). Each well, 8 wells at a time, of the plate is read for 2 min using a Flexstation3 (Molecular Devices) as follows: 1) a baseline YFP fluorescence is read for 17 sec, 2) 100 μL of ligand is added, and 3) the changes in YFP fluorescence are then measured every 1.3 sec for 1 minute and 43 seconds. The percent quench is calculated from the average fluorescence of the last 10 seconds of the read divided by the baseline average of the first 15 seconds prior to the ligand addition.
FIGS. 1A-1J provide heat maps of the percent quench of YFP fluorescence following stimulation by various doses of either acetylcholine or the non-native ligand as indicated in the Figures. CODA71 (SEQ ID NO: 33) was used as a control, and CODA75 (SEQ ID NO: 29, a non-responding chimeric engineered receptor) was used as the negative control. Quenching of the fluorescence signal, as indicated by blue shaded cells, indicate the level of engineered receptor activation by the non-native ligand at that concentration.

B1: CODA330: engineered chimeric LGIC receptor, L131F in SEQ ID NO: 33 (protein)
chain: MRCSPGGVWLALAASLLHVSLQGEFQRKLYKELVKNYNPLERPVANDSQPLTVYFSLSLLQIMDVDEKNQVLTTNIWLQMSWTDHYLQWNVSEYPGVKTVRFPDGQIWKPDILLYNSADERFDATFHTNVFVNSSGHCQYLPPGIFKSSCPMDLKNFPMDVQTCKLKFGSWSYGGWSLDLQMQEADISGYIPNGEWDLVGIPGKRSERFYECCKEPYPDVTFTVTMRRRMGYYLIQMYIPSLLIVILSWISFWINMDAAPARVGLGITTVLTMTTQSSGSRASLPKVSYVKAIDIWMAVCLLFVFSALLEYAAVNFVSRQHKELLRFRRKRRHHKSPMLNLFQEDEAGEGRFNFSAYGMGPACLQAKDGISVKGANNSNTTNPPPAPSKSPEEMRKLFIQRAKKIDKISRIGFPMAFLIFNMFYWIIYKIVRREDVHNQ
modifications: synthetic sequence of chimeric LGIC
- YFP fluorescence quenching using CNL001 (1 nM CNL001, first column): 76.289%
- YFP fluorescence quenching using CNL001 (1 nM CNL001, second column): 78.896%
- YFP fluorescence quenching using TC-5619/Bradanicline (1 nM brd): −12.4%
- YFP fluorescence quenching using TC-5619/Bradanicline (3 nM brd): 25.12%
- YFP fluorescence quenching using Varenicline (3 nM var, first column): −3.016
- YFP fluorescence quenching using Varenicline (3 nM var, second column): −1.452
- YFP fluorescence quenching using CNL001 (10 nM CNL001, first column): 79.339%
- YFP fluorescence quenching using CNL001 (10 nM CNL001, second column): 80.245%
- YFP fluorescence quenching using TC-5619/Bradanicline (10 nM brd): 72.19%
- YFP fluorescence quenching using TC-5619/Bradanicline (30 nM brd): 76.35%
- YFP fluorescence quenching using Facinicline (30 nM fac): 2.9
- YFP fluorescence quenching using Varenicline (30 nM var, first column): −0.193
- YFP fluorescence quenching using Varenicline (30 nM var, second column): −1.853
- YFP fluorescence quenching using CNL001 (50 nM CNL001, first column): 80.831%
- YFP fluorescence quenching using CNL001 (50 nM CNL001, second column): 80.605%
- YFP fluorescence quenching using ABT-126 (50 nM abt): −16.22%
- YFP fluorescence quenching using CNL001 (100 nM CNL001, first column): 81%
- YFP fluorescence quenching using CNL001 (100 nM CNL001, second column): 80.663%
- YFP fluorescence quenching using CNL002 (100 nM CNL002): −3.76%
- YFP fluorescence quenching using ABT-126 (100 nM abt): −11.89%
- YFP fluorescence quenching using AZD-0328 (100 nM azd0328): 27.56%
- YFP fluorescence quenching using TC-5619/Bradanicline (100 nM brd): 78.94%
- YFP fluorescence quenching using ABT-126 (300 nM abt): 39.23%
- YFP fluorescence quenching using AZD-0328 (300 nM azd0328): 73.35%
- YFP fluorescence quenching using TC-5619/Bradanicline (300 nM brd): 77.06%
- YFP fluorescence quenching using Facinicline (300 nM fac): 74.96
- YFP fluorescence quenching using Varenicline (300 nM var, first column): 6.915
- YFP fluorescence quenching using Varenicline (300 nM var, second column): 6.513
- YFP fluorescence quenching using Varenicline (500 nM var, first column): 27.593
- YFP fluorescence quenching using Varenicline (500 nM var, second column): 29.863
- YFP fluorescence quenching using CNL001 (1 uM CNL001, first column): 81.293%
- YFP fluorescence quenching using CNL001 (1 uM CNL001, second column): 81.428%
- YFP fluorescence quenching using CNL002 (1 uM CNL002): 68.51%
- YFP fluorescence quenching using ABT-126 (1 uM abt): 66.5%
- YFP fluorescence quenching using TC-5619/Bradanicline (1 uM brd): 78.61%
- YFP fluorescence quenching using TC-6987 (1 uM tc6987): 53.37
- YFP fluorescence quenching using Varenicline (1 uM var, first column): 67.499
- YFP fluorescence quenching using Varenicline (1 uM var, second column): 65.57
- YFP fluorescence quenching using Facinicline (10 uM fac): 81.97
- YFP fluorescence quenching using TC-6987 (10 uM tc6987): 74.23
- YFP fluorescence quenching using CNL002 (30 uM CNL002): 77.77%
- YFP fluorescence quenching using AZD-0328 (30 uM azd0328): 77.14%
- YFP fluorescence quenching using Facinicline (30 uM fac): 78.31
- YFP fluorescence quenching using TC-6987 (500 uM tc6987): 72.25
- percent quench of YFP fluorescence, 30 nM TC-6683 (TC-6683 30 nM): −22.26%
- percent quench of YFP fluorescence, 300 nM TC-6683 (TC-6683 300 nM): −18.89%
- percent quench of YFP fluorescence, 3 uM TC-6683 (TC-6683 3 uM): −9.45%
- percent quench of YFP fluorescence, 30 uM TC-6683 (TC-6683 30 uM): −9.23%
- percent quench of YFP fluorescence, 100 uM TC-6683 (TC-6683 100 uM): −10.75%
- percent quench of YFP fluorescence, 10 uM ach (acetylcholine 10 uM): 11.07%
- percent quench of YFP fluorescence, 100 uM ach (acetylcholine 100 uM): 43.34%
- percent quench of YFP fluorescence, 1 mM ach (acetylcholine 1 mM): 77.52%
- percent quench of YFP fluorescence, 3 mM ach (acetylcholine 3 mM): 74.89%
